According to US20240343803A1 (SHANDONG SIMCERE BIOPHARMACEUTICAL, published 2024):

B1: PVRIG-A11 (VHH)
VHH: QLQLVESGGGLVQPGGSLRLSCAASGFTDDYYAIGWFRQAPGKEREGVSCISGSGGSTNYEDSVKGRFAISRDNAKNMVYLQMNDLKPEDTAVYYCAADPFWSAPCTGHNDRYFDVWGQGTLVTVSS
notes: tested as VHH-hinge-CH2-CH3 (human IgG1-Fc); not shown: human IgG1 hinge-CH2-CH3
B2: PVRIG-A117 (VHH)
VHH: EVQVVESGGGLVQAGGSLRLSCTASEHIYDLYIMGWYRQAPGKDRELVATITYTGSIYIADSVKDRFTISRGNAKNTVSLQMSGLKPEDTAVYYCNADPSGLGRKLYWGQGTQVTVSS
notes: as for B1

Legend:
[1] = target: T1, human PVRIG on FlpinCHO-PVRIG cells (human, UniProt Q6DKI7 41-326); test: FACS, FlpinCHO-PVRIG cells
T1 construct: whole, on cells; also called FlpinCHO-hPVRIG; FlpinCHO-human PVRIG
T1 sequence (looked up): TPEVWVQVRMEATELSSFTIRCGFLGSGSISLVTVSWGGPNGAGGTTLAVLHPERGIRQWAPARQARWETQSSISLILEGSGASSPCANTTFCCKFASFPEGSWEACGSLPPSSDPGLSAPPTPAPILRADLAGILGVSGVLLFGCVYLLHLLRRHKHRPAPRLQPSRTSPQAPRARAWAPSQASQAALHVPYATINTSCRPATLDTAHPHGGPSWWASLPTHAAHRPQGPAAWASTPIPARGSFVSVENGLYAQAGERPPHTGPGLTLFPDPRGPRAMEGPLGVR
Procedure: After discarding the cell culture medium, the cells were rinsed with PBS and digested for 8-10 minutes by adding 1 mL Versene (Gibico, 15040-066). The Ham's F12 (Gibico, 21127-022) complete medium containing 10% FBS was then added to terminate the digestion and acquire cell suspension. After counting with a cell counter (Beckman Coulter, Vi-CELL), an appropriate amount of cell suspension was centrifuged at 350×g to remove the supernatant, washed twice with PBS, stained with Zombie violet (Biolegend, 423114) and incubated at room temperature for 20 minutes. After incubation, the cells were added with staining buffer (2% FBS+PBS) to stop staining, centrifuged at 350×g to remove the supernatant, washed twice and resuspended with staining buffer to a density of 2×10⁶ cells/mL. The cells were plated into a 96-well plate (50 μL of cell suspension per well) for further use. The antibodies were diluted from the highest concentration of 46 nM (two-fold concentration) with staining buffer by 3.3-fold serial dilution. The diluted antibodies were added to the well containing 50 μL of cell suspension. The plate was placed on a microplate shaker at 400 rpm for 1 minute to fully mix the antibodies and cells, and then incubated at 4° C. for 30 minutes. After the incubation, the cells were washed twice with staining buffer (200 μL per well) and centrifuged at 350×g for 5 minutes to discard the supernatant. The PE goat anti-human IgG Fc antibody (ebioscience, 12-4998-82) was diluted 250 times with staining buffer, added into the washed wells (100 μL per well), mixed well, and stained at 4° C. for 30 minutes. After staining, the cells were washed twice with staining buffer, finally resuspended with 200 μL staining buffer and analyzed by flow cytometry (BD, Canto II). The stronger the signal, the stronger the ability of the antibodies binds to PVRIG. An antibody binding curve was drawn with concentration of antibodies as the abscissa and the corresponding Mean Fluorescence Intensity (MFI) as the ordinate. The AUC value of the curve was calculated by using a Four Parameter Logistic Fit (GraphPadPrism9).

[2] = target: T2, human PVRIG-mFc protein (Acro, PVG-H5253) (human, UniProt Q6DKI7 41-171, limits assumed); test: competition FACS; blocked: human PVRIG-mFc binding to CHO-K1-CD112 cells
T2 construct: bought reagent; also called PVRIG-ECD-mFc
T2 sequence (looked up): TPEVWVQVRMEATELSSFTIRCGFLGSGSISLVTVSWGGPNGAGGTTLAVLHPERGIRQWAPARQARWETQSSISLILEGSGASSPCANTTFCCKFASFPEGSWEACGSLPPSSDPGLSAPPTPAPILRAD
Procedure: After incubation, the cells were added with staining buffer (2% FBS+PBS) to stop staining, centrifuged at 350×g to remove the supernatant, washed twice and resuspended with staining buffer to a density of 1×10⁶ cells/mL. The cells were plated into a 96-well plate (50 μL of cell suspension per well) for further use. A working solution of human PVRIG-mFc protein (Acro, PVG-H5253) prepared with staining buffer, 1 μg/mL (four-fold concentration), was added into a 96-well plate (50 μL PVRIG-mFc working solution per well). […] The diluted antibodies were added to the well containing 50 μL of PVRIG-mFc. The plate was placed on a microplate shaker at 400 rpm for 1 minute to fully mix the antibodies and PVRIG-mFc proteins, and then incubated at 4° C. for 30 minutes. After the incubation, the cell suspension prepared above (100 μL) was added into the wells, gently mixed with the pipette tip and incubated at 4° C. for 30 minutes. After the incubation, the cells were washed twice with staining buffer (200 μL per well) and centrifuged at 350×g for 5 minutes to discard the supernatant. The PE goat anti-mouse IgG Fc antibody (Biolegend, 405337) was diluted 250 times with staining buffer, added into the washed wells (100 μL per well), mixed well, and stained at 4° C. for 30 minutes. After staining, the cells were washed twice with staining buffer, finally resuspended with 200 μL staining buffer and analyzed by flow cytometry (BD, Canto II). The weaker the fluorescence signal, the stronger the ability of the antibodies blocks the binding of CHO-K1 human CD112 cells to the PVRIG-mFc protein. An antibody binding curve was drawn with concentration of antibodies as the abscissa and the corresponding Mean Fluorescence Intensity (MFI) as the ordinate. The IC50 value of the antibodies and the AUC value of the binding curve were calculated by using a Four Parameter Logistic Fit (GraphPadPrism9). The smaller the IC50 value and AUC value, the stronger the ability of the antibodies competes with CHO-K1-CD112 cells to bind to human PVRIG-mFc protein.

[3] = target: T3, human PVRIG-his (AcroBiosystems, Cat NO. PVG-H52H4) (human, UniProt Q6DKI7 41-171, limits assumed); test: competition ELISA on coated human PVRIG-his; blocked ligand human PVRL2-mFc
T3 construct: treated as the same protein; also called human PVRIG-His protein; Human PVRIG-His, Acro C227P1-9ARF1-T4
T3 sequence (looked up): T2 sequence (looked up)
Procedure: The ELISA plate was pre-coated with 100 μL/well of 0.5 μg/mL human PVRIG-his protein (AcroBiosystems, Cat NO. PVG-H52H4). The tested anti-PVRIG antibodies were diluted from the highest concentration of 16 nM (two-fold concentration). The diluted antibodies were mixed with 18 ng/ml human PVRL2-mFc (AcroBiosystems, Cat NO. CD2-H5257) in equal volume, added into the plate (100 μL/well), and incubated with shaking at room temperature for 2.0 hours. […] A HRP substrate, TMB (Thermo, Cat NO. 34029) was added into wells after washing the plate again for color development. After adding a termination solution to terminate the reaction, the absorbance value was read by a microplate reader (MD i3×). An inhibiting curve was drawn with concentration of antibodies as the abscissa and the corresponding OD value as the ordinate. The IC50 value was calculated by using a Four Parameter Logistic Fit (GraphPadPrism9). The smaller the IC50 value, the stronger the ability of the antibodies inhibits the binding between PVRIG and PVRL2. The positive and negative controls are the same as in Example 8.

Binder | EC50 (read off the curve) [1] | IC50 (read off the curve) [2] | IC50 (read off the curve) [3]
B1 | ~0.1 nM | ~0.9 nM | ~800 pM
B2 | ~0.3 nM | ~1 nM | ~500 pM
